Assay [1] addresses Hsp72 tracer FITC-Ahx-…. Put plainly: fluorescence polarisation.
Assay [2] addresses DnaJB4 (recombinant, human, full length, wild type) (human) (UniProt Q9UDY4). Put plainly: differential scanning fluorimetry. (In general: In DSF a fluorescence change marks the thermal transition of the protein.)
For assay [3] the target is unchanged. Put plainly: fluorescence polarisation. (In general: Fluorescence polarisation rises when a labelled molecule tumbles more slowly, as on binding a larger partner.)

The Kd is the constant that tells how readily two partners part at equilibrium. A higher Kd goes with a looser complex. For the substance “CHIP (recombinant human) (from UniProt Q9UNE7 1-303) (natural protein)”, in assay [1], the Kd was 1 µM.

Substance “DnaJB4 QPD mutant (from UniProt Q9UDY4 1-337) (natural protein)” displayed a dissociation constant Kd in assay [1] of 2.03 µM.

For “Hsc70 C-terminal 10-mer peptide, unlabeled, N-acetylated”, the Tmapp of DnaJB4 with 100 µM peptide in assay [2] was determined as 59 °C. The % tracer displacement in assay [3] was 67.6%.

(Values after article doi:10.1101/2021.10.18.464838.)
